B1: Ras-related protein Rab-2A (Homo sapiens), P61019 (parent)
chain: MAYAYLFKYIIIGDTGVGKSCLLLQFTDKRFQPVHDLTIGVEFGARMITIDGKQIKLQIWDTAGQESFRSITRSYYRGAAGALLVYDITRRDTFNHLTTWLEDARQHSNSNMVIMLIGNKSDLESRREVKKEEGEAFAREHGLIFMETSAKTASNVEEAFINTAKEIYEKIQEGVFDINNEANGIKIGPQHAATNATHAGNQGGQQAGGGCC
partner: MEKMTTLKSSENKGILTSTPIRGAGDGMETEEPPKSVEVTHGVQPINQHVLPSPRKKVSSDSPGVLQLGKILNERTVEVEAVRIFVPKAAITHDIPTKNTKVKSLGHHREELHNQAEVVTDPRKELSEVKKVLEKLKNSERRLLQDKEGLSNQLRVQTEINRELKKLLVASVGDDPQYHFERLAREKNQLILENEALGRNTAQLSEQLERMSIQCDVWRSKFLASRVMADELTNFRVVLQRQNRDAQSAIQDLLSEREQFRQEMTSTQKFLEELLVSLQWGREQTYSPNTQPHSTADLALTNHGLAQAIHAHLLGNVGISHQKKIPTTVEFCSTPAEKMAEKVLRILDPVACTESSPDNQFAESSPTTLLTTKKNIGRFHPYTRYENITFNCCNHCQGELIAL

Variants of: B1
Conditions: with go45_mouse Blzf1, Q8R2X8
With Q65L the “effect of a mutation on the interaction” value was “increasing interaction”.
